Experimental data: article PMC4002904

Legend:
[1] = target: GAL4 DNA-binding domain fused N terminal 47 amino acids of HBSP (Hepatitis B virus); experiment: two-hybrid; CheckMate mammalian two-hybrid in Huh-7 cells; pACT-EPHX1(353-455) with pBIND constructs and pG5luc reporter; renilla-normalised firefly luciferase at 48 h, relative to pBIND + pACT set to 1
[2] = target: GAL4 DNA-binding domain fused full-length HBSP (Hepatitis B virus); experiment: as above

B1: VP16-tagged mEH 353-455 (domain or fragment)
chain: DLLTNVMLYWTTGTIISSQRFYKENLGQGWMTQKHERMKVYVPTGFSAFPFELLHTPEKWVRFKYPKLISYSYMVRGGHFAAFEEPELLAQDIRKFLSVLERQ
**Q.** Which fold luciferase activity over the negative control [1] does the source give for B1 here?
**A.** 12 fold

**Q.** And the fold luciferase activity over the negative control [2]?
**A.** 9 fold
